From US20140235471A1
Like-named read-outs stand apart in the source and are kept apart here.

Assays:
[1] = target: cell-free expressed recombinant human p53 with N-terminal VSV-G epitope tag and C-terminal polyhisti (human) (UniProt P04637)
[2] = target: cell-free expressed recombinant human p53 with N-terminal VSV-G epitope tag and C-terminal polyhisti (human) (UniProt P04637); assay: Bead-ELISA, chemiluminescence normalised to bead fluorescence; mass-tagged beads
[3] = target: cell-free expressed recombinant human p53 with N-terminal VSV-G epitope tag and C-terminal polyhisti (human) (UniProt P04637); remark: listed apart in the source
[4] = target: cell-free expressed recombinant human KLHL12 with N-terminal VSV-G epitope tag and C-terminal polyhistidine and HSV epitope tags (human) (UniProt Q53G59)
[5] = target: cell-free expressed recombinant human p53 with N-terminal VSV-G epitope tag and C-terminal polyhisti (human) (UniProt P04637); assay: fluorescence imaging of p53 beads against blank beads, anti-VSV-Cy3 antibody
[6] = target: cell-free expressed recombinant human p53 with N-terminal VSV-G epitope tag and C-terminal polyhisti (human) (UniProt P04637); assay: fluorescence imaging of p53 positive against negative control blank beads

Chain of UniProt Q53G59 (Q53G59 other isoform, or with tags, fused parts or gaps limits assumed): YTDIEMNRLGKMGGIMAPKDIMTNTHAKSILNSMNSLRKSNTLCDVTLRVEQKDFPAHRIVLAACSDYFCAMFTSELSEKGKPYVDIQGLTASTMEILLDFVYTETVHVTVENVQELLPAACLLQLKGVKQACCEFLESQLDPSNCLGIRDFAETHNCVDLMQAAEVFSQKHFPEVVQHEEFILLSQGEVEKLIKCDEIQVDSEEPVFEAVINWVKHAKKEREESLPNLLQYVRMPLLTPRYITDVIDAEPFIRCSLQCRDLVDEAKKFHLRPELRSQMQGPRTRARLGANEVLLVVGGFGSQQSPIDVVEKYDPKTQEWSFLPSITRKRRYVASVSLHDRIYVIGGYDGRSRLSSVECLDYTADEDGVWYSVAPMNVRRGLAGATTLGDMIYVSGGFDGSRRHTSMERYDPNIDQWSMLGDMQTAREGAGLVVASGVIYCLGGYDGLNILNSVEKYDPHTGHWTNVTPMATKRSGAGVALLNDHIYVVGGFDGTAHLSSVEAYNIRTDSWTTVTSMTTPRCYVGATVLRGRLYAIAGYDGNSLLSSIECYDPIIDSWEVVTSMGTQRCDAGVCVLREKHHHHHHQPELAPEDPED

## anti-HSV tag monoclonal antibody (EMD Biosciences)
[1]
  reduction of the binding capacity of the beads for p53 by the mass tag: 50%

## monoclonal anti-VSV-G horseradish peroxidase (HRP) conjugated antibody, Clone P5D4
[2]
  signal-to-noise ratio: 42 :1
[1]
  signal-to-noise ratio: 82 :1

## fluorescently (Cy3) labeled anti-VSV-G tag antibody (Sigma-Aldrich)
[3]
  signal-to-noise ratio: 60 :1
[4]
  signal-to-noise ratio: 10 :1
[5]
  signal-to-noise: 25 :1

## fluorescently labeled (Alexa Fluor 594) anti-p53 antibody, clone BP53-12 (Santa Cruz Biotechnology)
[6]
  signal-to-noise ratio: > 100 :1
